What all share (experiment): SPR
(Surface plasmon resonance follows binding to a sensor surface in real time, without labels.)

Assay [1] addresses T1, recombinant mouse cold-inducible RNA-binding protein (mouse, UniProt P60824 1-172).
T1 chain: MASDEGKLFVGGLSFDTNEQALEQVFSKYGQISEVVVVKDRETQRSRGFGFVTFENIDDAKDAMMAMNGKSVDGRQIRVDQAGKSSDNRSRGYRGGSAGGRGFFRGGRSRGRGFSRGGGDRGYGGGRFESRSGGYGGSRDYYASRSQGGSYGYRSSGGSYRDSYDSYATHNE

The target in assay [2] is T2, recombinant human alphavbeta3 integrin (human, UniProt P06756 31-1048; P05106 27-718).
T2 chain 1: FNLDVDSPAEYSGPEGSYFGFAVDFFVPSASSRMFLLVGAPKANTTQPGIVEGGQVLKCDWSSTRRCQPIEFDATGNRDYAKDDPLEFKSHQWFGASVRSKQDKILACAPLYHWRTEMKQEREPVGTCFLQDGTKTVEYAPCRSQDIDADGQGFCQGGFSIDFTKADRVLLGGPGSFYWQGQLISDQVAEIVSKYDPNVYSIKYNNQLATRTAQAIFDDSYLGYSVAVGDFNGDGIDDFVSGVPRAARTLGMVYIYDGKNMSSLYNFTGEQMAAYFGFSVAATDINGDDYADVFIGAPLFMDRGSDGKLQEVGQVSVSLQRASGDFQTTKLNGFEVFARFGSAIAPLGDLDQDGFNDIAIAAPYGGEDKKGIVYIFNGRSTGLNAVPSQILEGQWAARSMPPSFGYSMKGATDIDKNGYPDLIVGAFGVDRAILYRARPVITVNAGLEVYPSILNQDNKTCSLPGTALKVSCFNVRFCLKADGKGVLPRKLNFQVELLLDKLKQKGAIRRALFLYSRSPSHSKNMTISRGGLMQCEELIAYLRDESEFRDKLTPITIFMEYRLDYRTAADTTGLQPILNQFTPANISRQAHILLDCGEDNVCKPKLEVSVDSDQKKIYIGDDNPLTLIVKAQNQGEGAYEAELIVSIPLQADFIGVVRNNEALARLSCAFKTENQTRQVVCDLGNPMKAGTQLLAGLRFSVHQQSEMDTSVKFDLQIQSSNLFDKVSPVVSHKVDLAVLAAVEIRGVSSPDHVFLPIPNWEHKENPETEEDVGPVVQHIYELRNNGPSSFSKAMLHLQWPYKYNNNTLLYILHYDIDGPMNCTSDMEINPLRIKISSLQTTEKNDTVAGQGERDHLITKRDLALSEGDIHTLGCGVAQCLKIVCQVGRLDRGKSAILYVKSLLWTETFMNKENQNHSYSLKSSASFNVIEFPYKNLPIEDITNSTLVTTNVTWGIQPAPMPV
T2 chain 2: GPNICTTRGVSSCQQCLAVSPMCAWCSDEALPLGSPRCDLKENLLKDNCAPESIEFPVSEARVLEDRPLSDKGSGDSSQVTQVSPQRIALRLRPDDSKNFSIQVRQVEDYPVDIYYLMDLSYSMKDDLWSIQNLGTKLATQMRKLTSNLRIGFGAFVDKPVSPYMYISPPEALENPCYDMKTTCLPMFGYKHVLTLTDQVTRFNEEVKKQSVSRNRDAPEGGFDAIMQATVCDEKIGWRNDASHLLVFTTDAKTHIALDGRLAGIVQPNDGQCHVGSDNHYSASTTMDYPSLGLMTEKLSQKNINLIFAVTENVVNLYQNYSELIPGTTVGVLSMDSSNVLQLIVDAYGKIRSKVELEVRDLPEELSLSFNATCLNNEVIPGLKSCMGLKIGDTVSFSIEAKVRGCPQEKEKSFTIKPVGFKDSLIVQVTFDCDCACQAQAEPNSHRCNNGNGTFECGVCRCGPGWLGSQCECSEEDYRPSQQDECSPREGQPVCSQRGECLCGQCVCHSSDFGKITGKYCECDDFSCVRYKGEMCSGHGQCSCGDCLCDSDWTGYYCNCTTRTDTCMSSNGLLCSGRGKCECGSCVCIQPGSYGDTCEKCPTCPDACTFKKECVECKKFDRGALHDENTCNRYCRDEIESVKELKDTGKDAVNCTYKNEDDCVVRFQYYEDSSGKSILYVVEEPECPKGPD

Assay [3] addresses recombinant human histone H3 (human, UniProt P68431 1-136).
The target of assay [4] is T3, recombinant human high mobility group box 1 (human, UniProt P09429 1-215).
T3 chain: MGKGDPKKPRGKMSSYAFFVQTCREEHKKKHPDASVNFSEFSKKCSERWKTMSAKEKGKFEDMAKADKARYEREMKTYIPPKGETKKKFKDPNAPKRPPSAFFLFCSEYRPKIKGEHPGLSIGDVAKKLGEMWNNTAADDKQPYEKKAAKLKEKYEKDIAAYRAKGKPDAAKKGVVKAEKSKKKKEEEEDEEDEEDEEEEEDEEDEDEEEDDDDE

One may read the Kd as the equilibrium constant for the complex coming apart. On to GNFNSSNIMKTCLQNRGD [opsonic peptide 18], for which the Kd in assay [1] was 1.5 nM; in assay [2], 1.1 nM; in assay [3], 2.1 nM; in assay [4], 3.9 nM.
